25 molecules from US20210355194A1 (TWIST BIOSCIENCE, published 2021) can be followed below.

Positions count from the first letter of the chain named.

B1: variant 5-1 (Fc fusion)
VHH: EVQLVESGGGLVQPGGSLRLSCAASGGTFSSIGMGWFRQAPGKEREFVAAISWDGGATAYADSVKGRFTISADNSKNTAYLQMNSLKPEDTAVYYCAKEDVGKPFDWGQGTLVTVSS
notes: VHH-Fc
B2: variant 5-52 (Fc fusion)
VHH: EVQLVESGGGLVQPGGSLRLSCAASGEKFSDHWMGWFRQAPGKEREFVATITFSGARTAYADSVKGRFTISADNSKNTAYLQMNSLKPEDTAVYYCAALIKPSSTDRIFEEWGQGTLVTVSS
B3: variant 5-28 (Fc fusion)
VHH: EVQLVESGGGLVQPGGSLRLSCAASGGTFSVFAMGWFRQVPGKERELVAEITAGGSTYYADSVKGRFTISADNSKNTAYLQMNSLKPEDTAVYYCAVDGPFGWGQGTLVTVSS
B4: variant 5-15 (Fc fusion)
VHH: EVQLVESGGGLVQPGGSLRLSCAASGFTFDGAAMGWFRQAPGKEREFVATIRWTNSTDYADSVKGRFTISADNSKNTAYLQMNSLKPEDTAVYYCARGRYGIVERWGQGTLVTVSS
B5: variant 5-32 (Fc fusion)
VHH: EVQLVESGGGLVQPGGSLRLSCAASGFTPDNYAMGWFRQAPGKEREFVAALGWSGVTTYHYYADSVKGRFTISADNSKNTAYLQMNSLKPEDTAVYYCASDESDAANWGQGTLVTVSS
B6: variant 5-27 (Fc fusion)
VHH: EVQLVESGGGLVQPGGSLRLSCAASGRANSINWMGWFRQAPGKEREFVATITPGGNTNYADSVKGRFTISADNSKNTAYLQMNSLKPEDTAVYYCAAAAGSTWYGTLYEYDWGQGTLVTVSS
B7: variant 5-29 (Fc fusion)
VHH: EVQLVESGGGLVQPGGSLRLSCAASGFTFDDYPMGWFRQAPGKEREGVASVLRGGYTWYADSVKGRFTISADNSKNTAYLQMNSLKPEDTAVYYCAKDWATGLAWGQGTLVTVSS
B8: variant 5-42 (Fc fusion)
VHH: EVQLVESGGGLVQPGGSLRLSCAASGFTPDDYAMGWFRQAPGKEREFVASIGYSGRSNSYNYYADSVKGRFTISADNSKNTAYLQMNSLKPEDTAVYYCAIAHGSSTYNWGQGTLVTVSS
B9: variant 5-13 (Fc fusion)
VHH: EVQLVESGGGLVQPGGSLRLSCAASGFTFDYYTMGWFRQAPGKEREFVAAIRSSGGLFYADSVKGRFTISADNSKNTAYLQMNSLKPEDTAVYYCAAYLDGYSGSWGQGTLVTVSS
B10: variant 5-23 (Fc fusion)
VHH: EVQLVESGGGLVQPGGSLRLSCAASGSIFSIDVMGWFRQAPGKEREFVAAISWSGESTLYADSVKGRFTISADNSKNTAYLQMNSLKPEDTAVYYCAAFDGYSGSDWGQGTLVTVSS
B11: variant 5-66 (Fc fusion)
VHH: B10 VHH with S27N, I28T, S30T, D32N, S52N, S54N, E56G, S57T, S105I
B12: variant 5-3 (Fc fusion)
VHH: B10 VHH with A50G, E56D, S103T
B13: variant 5-53 (Fc fusion)
VHH: EVQLVESGGGLVQPGGSLRLSCAASGLTVVPYAMGWFRQAPGKEREFVAAIRRSAVTNYADSVKGRFTIIADNSKNTAYLLMNSLKPEDTAVYYCAARRWGYHYWGQGTLVTVSS
B14: variant 5-16 (Fc fusion)
VHH: EVQLVESGGGLVQPGGSLRLSCAASGRTHSIYPMGWFRQAPGKERELVAAIHSGGATVYADSVKGRFTISADNSKNTAYLQMNSLKPEDTAVYYCAARRWIPPGPIWGQGTLVTVSS
B15: variant 5-20 (Fc fusion)
VHH: EVQLVESGGGLVQPGGSLRLSCAASGRTIVPYTMGWFRQAPGKERELVAAISPSAFTEYADSVKGRFTISADNSKNTAYLQMNSLKPEDTAVYYCAARRWGYDWGQGTLVTVSS
notes: VHH-Fc
B16: variant 5-49 (Fc fusion)
VHH: EVQLVESGGGLVQPGGSLRLSCAASGRTSTVNGMGWFRQAPGKEREFVASISQSGAATAYADSVKGRFTISADNSKNTAYLQMNSLKPEDTAVYYCAADRTYSYSSTGYYWGQGTLVTVSS
B17: variant 5-56 (Fc fusion)
VHH: EVQLVESGGGLVQPGGSLRLSCAASGRTFSSNMGWFRQAPGKEREFVARIFGGDRTLYADSVKGRFTISADNSKNTAYLQMNSLKPEDTAVYYCADINGDWGQGTLVTVSS
B18: variant 5-35 (Fc fusion)
VHH: EVQLVESGGGLVQPGGSLRLSCAASGPTFSIYAMGWFRQAPGKERELVAGISWNGGSTNYADSVKGRFTISADNSKNTAYLQMNSLKPEDTAVYYCALRRRFGGQEWGQGTLVTVSS
B19: variant 5-21 (Fc fusion)
VHH: EVQLVESGGGLVQPGGSLRLSCAASGGTFTTYHMGWFRQAPGKEREFVAHISTGGATNYADSVKGRFTISADNSKNTAYLQMNSLKPEDTAVYYCATFPAIVTDSDYDLGNDWGQGTLVTVSS
B20: variant 5-47 (Fc fusion)
VHH: EVQLVESGGGLVQPGGSLRLSCAASGFTFGSYDMGWFRQAPGKEREFVTAINWSGARTAYADSVKGRFTISADNSKNTAYLQMNSLKPEDTAVYYCAARSVYSYEYNWGQGTLVTVSS
B21: variant 5-37 (Fc fusion)
VHH: EVQLVESGGGLVQPGGSLRLSCAASGSTFSINAMGWFRQAPGKEREFVGGISRSGATTNYADSVKGRFTISADNSKNTAYLQMNSLKPEDTAVYYCAADGVPEYSDYASGPVWGQGTLVTVSS
notes: VHH-Fc
B22: variant 5-17 (Fc fusion)
VHH: EVQLVESGGGLVQPGGSLRLSCAASGPTFSIYAMGWFRQAPGKEREFVAGIRWSDVYTQYADSVKGRFTISADNSKNTAYLQMNSLKPEDTAVYYCALDIDYRDWGQGTLVTVSS
B23: variant 5-39 (Fc fusion)
VHH: B22 VHH with P27V, F29L, S30D, I31L, S54T, V56A, Q59E, L98V
B24: variant 5-55 (Fc fusion)
VHH: EVQLVESGGGLVQPGGSLRLSCAASGIDVNRNAMGWFRQAPGKEREFVAAITWSGGWRYYADSVKGRFTISADNSKNTAYLQMNSLKPEDTAVYYCATTFGDAGIPDQYDFGWGQGTLVTVSS
B25: variant 5-22 (Fc fusion)
VHH: EVQLVESGGGLVQPGGSLRLSCAASGFTFNVFAMGWFRQAPGKEREFVAAINWSDSRTDYADSVKGRFTISADNSKNTAYLQMNSLKPEDTAVYYCASGSDNRARELSRYEYVWGQGTLVTVSS

The target in this assay is CV S-protein construct 6 trimer TP31001F (SARS-CoV-2, UniProt P0DTC2 14-1208). The assay is described as follows: SPR. A general note: Surface plasmon resonance follows binding to a sensor surface in real time, without labels.
In general, Kd refers to the equilibrium constant for the complex coming apart. For B1, binding was put at a Kd of 0.4 nM.

In turn, B2 yielded a Kd of 0.9 nM.

Molecule B3 had an equilibrium dissociation constant (Kd) of 1 nM.

B4: binding was characterised by a dissociation constant (Kd) of 2.3 nM.

With B5, the Kd is 0.1 nM.

The molecule B6 gave a Kd of 110 nM.

B7 yielded a Kd of 1 nM.

B8 had a Kd of 0.6 nM.

B9 gave a Kd of 3.8 nM.

For B10, the Kd is 4.2 nM.

Molecule B11 showed an equilibrium dissociation constant (Kd) of 98.9 nM.

B12 came in with a Kd of 5.6 nM.

In turn, B13 returned a Kd of 684 nM.

Turning to B14, the affinity, expressed as Kd, was 1.9 nM.

B15 displayed a Kd of 1.1 nM.

In the case of B16, the affinity, expressed as Kd, was 3.4 nM.

For the molecule B17, binding was characterised by a dissociation constant (Kd) of 2.8 nM.

Regarding B18, the Kd was determined as 16 nM.

In turn, B19 came in with a Kd of 10 nM.

Molecule B20 had a Kd of 0.7 nM.

B21 yielded a Kd of 1.8 nM.

B22: the Kd amounted to 18.9 nM.

B23 yielded a Kd of 37.6 nM.

For B24, the Kd came out at 0.6 nM.

In the case of B25, the Kd came out at 7.2 nM.
